# Source: patent US20220017616A1 (published 2022)
# Residue numbers refer to the chain shown, from its start.
# T1: human CD112R (N81D)
# T1 chain: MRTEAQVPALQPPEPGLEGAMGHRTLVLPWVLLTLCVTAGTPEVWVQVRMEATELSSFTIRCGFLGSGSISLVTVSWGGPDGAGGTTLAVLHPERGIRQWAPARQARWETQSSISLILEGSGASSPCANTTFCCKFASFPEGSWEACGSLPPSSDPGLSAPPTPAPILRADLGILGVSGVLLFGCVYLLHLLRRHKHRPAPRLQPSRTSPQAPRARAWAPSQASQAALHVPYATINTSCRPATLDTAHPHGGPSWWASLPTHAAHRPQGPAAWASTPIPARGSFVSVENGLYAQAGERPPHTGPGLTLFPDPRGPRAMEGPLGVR
# T2: human TIGIT (UniProt Q495A1 22-244)
# T2 chain: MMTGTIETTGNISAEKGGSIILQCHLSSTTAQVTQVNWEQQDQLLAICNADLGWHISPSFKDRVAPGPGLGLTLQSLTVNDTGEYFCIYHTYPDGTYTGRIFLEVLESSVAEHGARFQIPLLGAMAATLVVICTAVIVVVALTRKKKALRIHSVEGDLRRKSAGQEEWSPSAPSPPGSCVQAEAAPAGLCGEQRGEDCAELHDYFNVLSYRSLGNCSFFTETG
# B1: human CD112R (receptor)
# chain: TPEVWVQVRMEATELSSFTIRCGFLGSGSISLVTVSWGGPNGAGGTTLAVLHPERGIRQWAPARQARWETQSSISLILEGSGASSPCANTTFCCKFASFPEGSWEACGSLPPSSDPGLSAPPTPAPILRADLAGILGVSGVLLFGCVYLLHLLRRHKHRPAPRLQPSRTSPQAPRARAWAPSQASQAALHVPYATINTSCRPATLDTAHPHGGPSWWASLPTHAAHRPQGPAAWASTPIPARGSFVSVENGLYAQAGERPPHTGPGLTLFPDPRGPRAMEGPLGVR
# B2: 29E10 (antibody, V domains shown)
# VH: EVQLVESGGGLVQPGGSLRLSCAASGFTFRNYDMHWVRQVPGKGLEWVSDIGNSGETYYLGSVKGRFTISRENAKNSLYLQMNSLRAGDTAVYYCVREEFGYGMDVWGQGTTVTVSS
# VL: DIQMTQSPSSLSASVGDRVTITCRASQGIRNDLGWYQQKPGKAPKRLIYAASSLQSGVPSRFSGSGSGTEFTLTISSLQPEDFATYYCLQHNSYPLTFGGGTKVEIKR
# B3: 24F1.001 (antibody, V domains shown)
# VH: EVQLVESGGGLVQPGGSLRLSCAASGFTFSRDDMHWVRQATGKGLEWVAGIDNAGETYYPGSVKGRFTISRENAKNSLYLQMNSLRAGDTAIYYCAREGQWPYGMDVWGQGTTVTVSS
# VL: B2 VL with A50S, P59S, H91S
# B4: 24F1 (antibody, V domains shown)
# VH: B3 VH with E56D
# VL: B2 VL with A50S, P59S, H91S
# B5: 1E1.016 (antibody, V domains shown)
# VH: QVQLVQSGAEVKKPGASVKVSCKASGYTFTDYYIYWVRQAPGQGLEWMGWINPNAGGTNYAQKFQGRVTMTRDTSISTAYIELSRLRSDDTAVYYCAREDNFNGMDVWGQGTTVTVSS
# VL: B2 VL with H91L, S93A
# B6: 55G7.041 (antibody, V domains shown)
# VH: EVQLVESGGGVVQPGGSLRLSCAASGFTFSSYGMHWVRQAPGKGLEWVALIWFDESNIYYADAVKGRFTISRDNAKNTLYLQMNSLRAEDTAVYFCARGYDLLTGYYNFDFWGQGTLVTVSS
# VL: QAGLTQPPSVSKGLRQTATLTCTGNANNVGNRGAAWLQQHQGHPPKLLSYRNNNRPSGISERLSASRSGNTASLTITGLQPEDEADYYCSAWDSSLSAWVFGGGTKLTVLG
# B7: 58A7.003.008 (antibody, V domains shown)
# VH: QVQLQESGPGLVKPSETLSLTCTVSGGSISSGGYYWNWIRQPPGKGLEWIGYIYYSGSTFYNPSLKSRVTISVDTSKNQFSLKLSSVTAADTAVYYCARAPRYNWNYGWFDPWGQGTLVTVSS
# VL: EIVLTQSPGTLSLSPGERATLSCRASQQVSSTYLAWYQQKPGQAPRLLFYGASSRATGIPDRFSRSGSGTDFTLTISRLEPEDFAVYYCQQYDVSPWTFGQGTKVEIKR
# B8: 66H9.009 (antibody, V domains shown)
# VH: QVQLQESGPGLVKPSETLSLTCTVSGGSISSVYFYWNWIRQPPGKGLEWIGYIYYSGGTYYNPSLRSRVTISVDTSKNQFSLKLNSVTAADTAVYYCARGSIAAGGGYFYYNDMDVWGQGTTVTVSS
# VL: EIVLTQSPDFQSVTPKEKVAITCRASQSIGSSLHWYQQKPDQSPKPLIKYVSQSFSGVPSRFSGSGSGTDFTLTINSLEAEDAATYYCHQSSSLPLTFGGGTKVEIKR
# B9: 43B7.002.015 (antibody, V domains shown)
# VH: QVQLQESGPGLVKPSETLSLTCTVSGGSISSGGYYWSWIRQHPGKGLEWIGYIYYRGGTYYNPSLRSRVTMSVDTSKNQFSLRLSSVTAADTAVYYCARTIFGVIILDNWGQGTPVTVSS
# VL: DIQMTQSPSSLSASVGDRVTITCRSSQSISSYLNWYQQKPGRAPKLLIYAASSLQSGVPSRFSGSGSGTDFTLTISSLQPEDFASYYCQQSYTTPPTFGGGTKVEIKR
# Molecular target: 31B3.001
# Assay: Biacore SPR
row,Kd,Binder
1,2.29 nM,B1

# Molecular target: T1, human CD112R (N81D)
# Assay: Biacore SPR
row,Kd,Binder
1,0.126 nM,B2
2,0.0594 nM,B3
3,0.0506 nM,B4
4,0.25 nM,B5

# Molecular target: T2, human TIGIT
# Assay: Biacore SPR
row,Kd,Binder
1,0.228 nM,B6
2,0.283 nM,B7
3,0.0523 nM,B8
4,0.0519 nM,B9

# Molecular target: cynomolgus TIGIT
# Assay: Biacore SPR
# Sequence of cynomolgus TIGIT (chain, as listed by the source): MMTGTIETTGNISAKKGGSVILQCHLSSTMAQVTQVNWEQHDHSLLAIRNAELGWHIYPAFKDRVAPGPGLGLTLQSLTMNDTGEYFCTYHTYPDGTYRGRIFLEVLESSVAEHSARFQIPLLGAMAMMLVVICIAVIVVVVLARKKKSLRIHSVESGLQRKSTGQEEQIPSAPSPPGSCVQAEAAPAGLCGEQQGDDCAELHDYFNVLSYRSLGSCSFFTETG
row,Kd,Binder
1,25 nM,B6
2,9.39 nM,B7
3,34.7 nM,B8
4,13 nM,B9
